The source of these data is patent US20240409645A1 (DUALYX, published 2024).

Broadly, the koff is the rate constant with which the complex falls apart.

Where a chain is given by its changes, count along the chain named.

B1: FJ1427_P035MP05F11 (VHH)
VHH: QVQLVESGGGSVQAGGSLRLSCAASGRTLYSSYGMAWFRQAPGKERDFVGSISRYGTYTSYADSVKDRFTISRDNAKSTVYLQMNNTKPEDTAVYYCAAYTYSGSFYSAVKTHRDEYQYWGQGTQVTVSS
notes: Tested as soluble VHH in a crude periplasmic extract (P.E.); CDR3 family 15; also called Clone nr; 470
B2: FJ1427_P035MP05D12 (VHH)
VHH: B1 VHH with V2L, A109T
notes: Tested as soluble VHH in a crude periplasmic extract (P.E.); CDR3 family 15; also called Clone nr
B3: FJ1427_P035MP05C12 (VHH)
VHH: EVQLVESGGGLVQAGDSLRLSCAASGFNFGWHAMGWFRQAPGKEREFVATITWTGRDTYYADSVRGRFTISKDNAKNTLFLQMSSLRPDDTGVYYCAKARERATWAYSEDDCDYWGQGTQVTVSS
notes: Tested as soluble VHH in a crude periplasmic extract (P.E.); CDR3 family 1; also called Clone nr
B4: FJ1427_P035MP05E12 (VHH)
VHH: B3 VHH with E1Q, V2L, N77D, S84N
notes: as for B3
B5: FJ1427_P035MP05F12 (VHH)
VHH: QLQLVESGGGLVQAGGSLRLSCLASGLTFDGYAIGWFRQAPGKELEGVSYITGSDGSSYYADSVKGRFTISSDNAKNTVYLHMNSLKPDDAAVYYCAIDHLGSRGGYHSSWWRSSDMDLWGKGTLVTVSS
notes: Tested as soluble VHH in a crude periplasmic extract (P.E.); CDR3 family 4; also called Clone nr
B6: 12-MP05B12 VHH (periplasmic extract) (VHH)
VHH: QVQLVESGGGLVQAGGSLRLSCAASGFTFDGYAIGWFRQAPGKEREGVSYITGSDGSTYYADSVKGRFTISSNNAKNTVYLHMNSLKPDDAAVYYCAIDRLGSRGAYVPIWWRSSDMDLWGKGTLVTVSS
notes: soluble VHH in periplasmic extract
B7: 4-MP01F04 VHH (periplasmic extract) (VHH)
VHH: QVQLVESGGGLVQAGGSLRLSCAASGGTFRTRNMGWFRRAPGKEREFVAAVSWNVDNKLYADSVKGRFTISRDNGRNMVYLQMNSLKPEDTAVYYCAADNIPLSSDMRPTATEYDYWGQGTQVTVSS
notes: as for B6
B8: 11-MP05H04 VHH (periplasmic extract) (VHH)
VHH: QLQLVESGGGLVQAGGSLRLSCAASGLTFEGYAIGWFRQAPGKEREGVSYITGSDGTTYYINSVKGRFTISSDNAKSTVYLQMNTLKPEDTAVYYCAVDRLGSQGRYASAWWRSGDMDLWGKGTQVTVSS
notes: as for B6
B9: 9-MP05G01 VHH (periplasmic extract) (VHH)
VHH: EVQLVESGGGLVQAGGSLRLSCAASGGSIYTYNMGWFRQAPGKEREFVAGTLWSGGDSVYADFAKGRFTLSRENAKNTLYLQMNSLKPEDTATYYCAIDPLSLTSDWRVDELSSWGKGTLVTVSS
notes: as for B6

One experiment addresses T1, human interleukin-2 receptor α-chain (human, UniProt P01589 22-240, limits assumed).
T1 construct: Recombinant human IL-2Rα protein, coated on the ELISA plate or amine-coupled to a CM5 chip; also called human IL-2Rα; hu IL-2R
T1 sequence: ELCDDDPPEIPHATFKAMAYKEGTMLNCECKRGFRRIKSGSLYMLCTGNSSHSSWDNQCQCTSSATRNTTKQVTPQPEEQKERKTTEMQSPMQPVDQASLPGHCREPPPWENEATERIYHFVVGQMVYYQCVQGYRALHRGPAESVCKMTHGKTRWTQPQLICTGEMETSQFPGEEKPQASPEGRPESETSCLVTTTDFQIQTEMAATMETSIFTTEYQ
The experiment is described as follows: SPR (Biacore 3000) off-rate ranking, periplasmic extract over immobilised human IL-2Rα. How it is done: SPR was performed to determine dissociation rates using Biacore 3000 instrument (GE Healthcare). Briefly, human and mouse IL-2R proteins were immobilized on carboxylmethyl dextran sensor chip (CM5) at approximately 2500 RUs using amine coupling in acetate buffer (GE Healthcare). The VHH-containing P.E. were loaded with a flow rate of 30 uL/min and the off-rates were measured over a 120s period.
As to B1, the koff came to 0.00173 s⁻¹.
Consider B2, for which the off-rate (koff) was 0.00235 s⁻¹.
Same read-out and setting: for B3 the value was 0.000874 s⁻¹.
Still for that read-out and setting: for B4 the value was 0.000273 s⁻¹; for B5, 0.000469 s⁻¹.

Another experiment addresses T2, mouse IL-2Rα, recombinant protein (mouse, UniProt P01590 22-236, limits assumed).
T2 construct: also called moIL2R-a
T2 sequence (looked up): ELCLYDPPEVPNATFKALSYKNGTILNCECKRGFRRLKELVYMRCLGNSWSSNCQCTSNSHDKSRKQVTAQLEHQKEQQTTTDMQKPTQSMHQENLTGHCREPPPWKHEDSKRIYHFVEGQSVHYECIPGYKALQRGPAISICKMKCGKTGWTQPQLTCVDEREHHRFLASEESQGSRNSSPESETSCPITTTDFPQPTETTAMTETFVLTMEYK
Kind of experiment: P.E. off-rate SPR. The method, boiled down:
(§1)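 CM5 chip, amine coupling (acetate buffer), ~2500 RU receptor. VHH P.E. flowed at 30 uL/min; off-rate read over 120 s.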
With B6, the koff came out at 0.000547 s⁻¹.
Same read-out and setting: for B7 the value was 0.256 s⁻¹; for B8, 0.00163 s⁻¹; for B9, 0.0442 s⁻¹.

The next experiment deals with T3, human interleukin-2 receptor α-chain (IL-2Rα; CD25), recombinant protein (human, UniProt P01589 22-240, limits assumed).
T3 construct: also called huIL2R-a; hIL-2RA
T3 sequence: T1 sequence
The experiment is described as follows: P.E. off-rate SPR. In a few lines:
as §1
Take B6: the koff amounted to 0.000222 s⁻¹.
Same read-out and setting: for B7 the value was 0.000258 s⁻¹; for B8, 0.0012 s⁻¹; for B9, 0.000169 s⁻¹.

A further experiment concerns the target T4, mouse IL-2Rα (mouse, UniProt P01590 22-236, limits assumed).
T4 construct: Recombinant mouse IL-2Rα protein, coated on the ELISA plate or amine-coupled to a CM5 chip; also called mo IL-2R; moIL2R-a
T4 sequence (looked up): T2 sequence (looked up)
The experiment is described as follows: SPR (Biacore 3000) off-rate ranking, periplasmic extract over immobilised mouse IL-2Rα. A general note: Surface plasmon resonance follows binding to a sensor surface in real time, without labels.
Turning to B5, the koff is 0.00463 s⁻¹.

The target of a further experiment is T1, human interleukin-2 receptor α-chain. The experiment is described as follows: binding ELISA, periplasmic extract 1:5 on coated human IL-2Rα, anti-c-myc detection. The method, then:
In a binding ELISA, human or mouse IL-2Rα, IL-2Rβ and IL-2Rγ proteins were coated directly on maxisorp microtiter plates overnight at 4° C. Free binding sites were blocked using 4% Marvel in PBS for 1 hour. Next, 1:5 dilution of P.E. in 1% Marvel/PBS were added to wells and incubated for 1 hour. […] Binding specificity was determined based on O.D. at 450 nm values compared to negative controls.
(ELISA stands for enzyme-linked immunosorbent assay.)
For the molecule B1, the “PE binding ELISA (OD450 nm)” value came to 2.27 OD450.
The same measure, in the same setting: for B2 the value was 2.39 OD450; for B3, 2.4 OD450; for B4, 2.15 OD450.
The same measure, in the same setting: for B5 the value was 2.19 OD450.

A further experiment addresses T2, mouse IL-2Rα, recombinant protein. Kind of experiment: P.E. binding ELISA. The method, boiled down:
(§2)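 Plates were coated overnight at 4° C with human or mouse IL-2R chain protein, and free sites blocked for 1 hour in 4% Marvel in PBS. Periplasmic extracts diluted 1:5 in 1% Marvel/PBS then bound for 1 hour, with specificity assessed from 450 nm absorbance relative to negative controls.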
B6: the OD450 nm turned out to be 0.936 OD450 nm.
Same read-out and setting: for B7 the value was 0.046 OD450 nm; for B8, 0.163 OD450 nm.
The same measure, in the same setting: for B9 the value was 0.047 OD450 nm.

The target of the next experiment is T3, human interleukin-2 receptor α-chain …. The experiment is described as follows: P.E. binding ELISA. The method, boiled down: as §2
B6: the OD450 nm worked out at 2.14 OD450 nm.
B7: the OD450 nm amounted to 2.49 OD450 nm.
The same measure, in the same setting: for B8 the value was 2.22 OD450 nm.
Same read-out and setting: for B9 the value was 2.35 OD450 nm.
